This is an account of results in a protein production outcome set (Wang et al. 2014).

A short description of this data set: label from the status in PepcDB records.
As to “MCQTCLSWYARCVAPYFVHAGCSAGAFSQMRRRVIPRAEGVVVEVGFGSGLNLPYYDAARVERLVGIDPDGTMLGLAAPKSRAMPFAVECIRAGGESLPLADGIADTVVVTYAFCTIPDPQAALSEIRRVLKPRGRLIFIEHGQAEGPRGRRWQQRLNRLWGSIAGGCHLNRDPLRLIGGAGFRLLEVQHGRFPLPLWQLGSHHAGIAAAG”, the protein production result is reported as “failed”.

For “MAKSKSSQGASGARRKPAPSLYQHISSFKPQFSTRVDDVLHFSKTLTWRSEIIPDKSKGTLTTSLLYSQGSDIYEIDTTLPLKTFYDDDDDDDNDDDDEEGNGKTKSAATPNPEYGDAFQDVEGKPLRPKWIYQGETVAKMQYLESSDDSTAIAMSKNGSLAWFRDEIKVPVHIVQEMMGPATRYSSIHSLTRPGSLAVSDFDVSTNMDTVVKSQSNGYEEDSILKIIDNSDRPGDILRTVHVPGTNVAHSVRFFNNHLFASCSDDNILRFWDTRTADKPLWTLSEPKNGRLTSFDSSQVTENLFVTGFSTGVIKLWDARAVQLATTDLTHRQNGEEPIQNEIAKLFHSGGDSVVDILFSQTSATEFVTVGGTGNVYHWDMEYSFSRNDDDNEDEVRVAAPEELQGQCLKFFHTGGTRRSSNQFGKRNTVALHPVINDFVGTVDSDSLVTAYKPFLASDFIGRGYDD”, the protein production entry is on record as “failed”.

In the case of “MNLSSASSTEEKAVTTVLWGCELSQERRTWTFRPQLEGKQSCRLLLHTICLGEKAKEEMHRVEILPPANQEDKKMQPVTIASLQASVLPMVSMVGVQLSPPVTFQLRAGSGPVFLSGQERYEASDLTWEEEEEEEGEEEEEEEEDDEDEDADISLEEQSPVKQVKRLVPQKQASVAKKKKLEKEEEEIRASVRDKSPVKKAKATARAKKPGFKK”, the protein production entry was “failed”.

Turning to “SLSSKDKDTVKALWGKIADKAEEIGSDALSRMLAVYPQTKTYFSHWKDLSPGSAPVNKHGKTIMGGIVDAVASIDDLNAGLLALSELHAFTLRVDPANFKILSHCILVLLAVKFPKDFTPEVHISYDKFFSALARALAEKYR”, the protein production entry is on record as “not failed”.

On to “MGVKRKKMGKVAGFTEWTAEDLEAFRARWPIGTAQRLALELYQWTGARCVDVIRLGPQMVGRDGVLTYVQQKTGNPAHVPWTCPAFGLEEQRADLMRCLPVGSPVYMLTEYGKPRTQKGVSQWFSAAAREAGLESRTAHGLRKYRMNALAEHGASVLVMQSWVGHTTLLEVQEYTRLEHHHHHH”, for which the protein production result is given as “not failed”.

Turning to “MQSRSDGSWVLTLSRRLDAPSGEFAGVVLVTLQLKYFQNYYSTFEVGPHGTIGMTNDDGIVMVRRPDKQGVIGTSIAGTSIYVTMRARKHGTATYRSPIDRVERISSFAPARPYPLTVLTGFSVDDALANWRETARQRIVVAALGCTLLLGVGIWLDLQLRRMHRNEAKLSTEAWVDALTGIANRRAFDHRLSRALQDAVRLEAPLSVLMIDVDHFKLYNDTYGHVNGDACLRLIAGAIAGCSRRSEDLAARYGGEEFGMILPHTDAAGALRLADAVRNAVAELGLMHLSSPTSAHVTVSIGAATFEPGEAPLSPNAIVHDADSALYRAKQKGRNRTSA”, the protein production entry is recorded as “failed”.

Regarding “MIDALLNFDFIRYSLISGLLIGFIAPLIGAFIVVRRLSLIADALSHVTLGGISFGMFLLTIIPVFSVINPMWFGILFAVIGALLIEKLRTSFSNYQEIAIPIIMSAGIALSAIFISLADGFNQEIVGLLFGSISAVNISDLTTIIIITIIVLIFIVLFYKELFILSFDEEYSKVIGIPKWIQFLFIVIVAMVISASMRVVGILLVSALITLPIAISMRITKGFKQLIALSVILGELSVILGLIIAFYMNISPGGVIVVLLVLMLILTMIIQKLKIKFKKGVV”, the protein production result is listed as “failed”.

In the case of “MMDSHCRVRAPGAAQPADCPPPTTQHAALAARLGHARLHTLYDQATWSEGPAWWEAQRTLVWSDVVGRRVLGWREDGAVDVLLDATAFTNGNAVDTQQRLVHCEHGRRAITRSEVDGRAHLLVGRFEGKRLNSPNDLIVARDGAIWFTDPPFGLRKPSQGCPGPQELDHHGVYRLPPDGGALQCMVNLDHPNGLAFSPDERVLYVSQTPEGGPGAPEITALDWHDGALHNRRRFAVVPEGLPDGFCVDCQGWLWSSSGAGVCVFDSGGHVLGLVPTPHTASNCTFDLVQRRLFITGGSTLWLLDLQR”, the protein production result is on record as “failed”.

For the sequence “MDTLEPTAVDTHVSAEQILRDVYKKGQKARGSTNIDILDLEELREYQRRKRTEYEGYLKRNRLDMGQWIRYAQFEIEQHDMRRARSIFERALLVDSSFIPLWIRYIDAELKVKCINHARNLMNRAISTLPRVDKLWYKYLIVEESLNNVEIVRSLYTKWCSLEPGVNAWNSFVDFEIRQKNWNGVREIYSKYVMAHPQMQTWLKWVRFENRHGNTEFTRSVYSLAIDTVANLQNLQIWSDMEVAKLVNSFAHWEAAQQEYERSSALYQIAIEKWPSNQLLKAGLLDFEKQFGDINSIEETISYKRKMEYETILSNNAYDYDTWWLYLDLISESFPKQIMQTFEKAIVDSRPKELSKNVQWKRYIYLWMRYICYVELELENSLLEEELFQRLIDDIIPHKHFTFSKIWLMYAKFLIRHDDVPKARKILGKAIGLCPKAKTFKGYIELEVKLKEFDRVRKIYEKFIEFQPSDLQIWSQYGELEENLGDWDRVRGIYTIALDENSDFLTKEAKIVLLQKYITFETESQEFEKARKLYRRYLELNQYSPQSWIEFAMYQTSTPTEQQLLDLAKLQSENVDEDIEFEITDENKLEARKVFEEAIVFFKEKDDKQGRLSILEALKDYEETYGTELDQETVKKRFPKVIKKVRLQNGVEEEFVDYIFPDDIDDDKPKPSKFLELAKKWKQEQAL”, the protein production result is reported as “failed”.

As for “VQPLATQCFQLSNMFNPQTEEEVGWDTEIKDDVIEECNKHGGVIHIYVDKNSAQGNVYVKCPSIAAAIAAVNALHGRWFAGKMITAAYVPLPTYHNLFPDSMTATQLLVPSRR”, the protein production entry is reported as “not failed”.

“MSDSAEMQQPELLLKSMNKLNGYHPQLIIPKKTLFKCDLDDKQSRLQVSSMHMENSGFLTEDEKRTIEAQKMKKRRTAGLRVAFIDPESQQYVLELHKWTKSYAFVKGWNKVVDKNDKTFKVGDVFSLWVFRCGGVNPVHDGVNLSGGHADSVVDGLEQGSLCFVLVPAKVSVHDGNLPQDSGHDGHNDNLPQDSVEPSSFFDESYELNHLFFDQEDSQGYLPDEDEDFGFNDDGSIRDSGHYQ”: the protein production result is reported as “failed”.

Regarding “REEDPHEGKIWFHGKISKQEAYNLLMTVGQVCSFLVRPSDNTPGDYSLYFRTNENIQRFKICPTPNNQFMMGGRYYNSIGDIIDHYRKEQIVEGYYLKEPVPMQDQ”, the protein production result was “not failed”.

In the case of “MGRIAWVVRADRPCAATNTHINEPPRRALTSGPGVFIRRTVAAAATRRRYPSAMAIHADTHDDLRLFQTGEHACGYWSDRRARDLVLDPHDPRLGAIYPQALAWGFRRSGDLVYRPHCERCRACVPVRIAVDAFHPDRSQRRCLTRNQDLVVRVVAAERTDEQLALYRQYLKYRHPGGGMDEHGATEFDQFLIGGWSHGRFLEIREPAIAHLPGRLLAVAVTDVTEHALSAIYTFYAPEAAARSLGTFAILQQIQWAQRERRAHVYLGYWIEGHAKMNYKRRFSALEAYDGRHWCDLPAHPSGT”, the protein production result was “failed”.

As for “MSVPAIAPRRKRLADGLSVTQKVFVRSRNGGATKIVREHYLRSDIPCLSRSCTKCPQIVVPDAQNELPKFILSDSPLELSAPIGKHYVVLDTNVVLQAIDLLENPNCFFDVIVPQIVLDEVRNKSYPVYTRLRTLCRDSDDHKRFIVFHNEFSEHTFVERLPNETINDRNDRAIRKTCQWYSEHLKPYDINVVLVTNDRLNREAATKEVESNIITKSLVQYIELLPNADDIRDSIPQMDSFDKDLERDTFSDFTFPEYYSTARVMGGLKNGVLYQGNIQISEYNFLEGSVSLPRFSKPVLIVGQKNLNRAFNGDQVIVELLPQSEWKAPSSIVLDSEHFDVNDNPDIEAGDDDDNNESSSNTTVISDKQRRLLAKDAMIAQRSKKIQPTAKVVYIQRRSWRQYVGQLAPSSVDPQSSSTQNVFVILMDKCLPKVRIRTRRAAELLDKRIVISIDSWPTTHKYPLGHFVRDLGTIESAQAETEALLLEHDVEYRPFSKKVLECLPAEGHDWKAPTKLDDPEAVSKDPLLTKRKDLRDKLICSIDPPGCVDIDDALHAKKLPNGNWEVGVHIADVTHFVKPGTALDAEGAARGTSVYLVDKRIDMLPMLLGTDLCSLKPYVDRFAFSVIWELDDSANIVNVNFMKSVIRSREAFSYEQAQLRIDDKTQNDELTMGMRALLKLSVKLKQKRLEAGALNLASPEVKVHMDSETSDPNEVEIKKLLATNSLVEEFMLLANISVARKIYDAFPQTAMLRRHAAPPSTNFEILNEMLNTRKNMSISLESSKALADSLDRCVDPEDPYFNTLVRIMSTRCMMAAQYFYSGAYSYPDFRHYGLAVDIYTHFTSPIRRYCDVVAHRQLAGAIGYEPLSLTHRDKNKMDMICRNINRKHRNAQFAGRASIEYYVGQVMRNNESTETGYVIKVFNNGIVVLVPKFGVEGLIRLDNLTEDPNSAAFDEVEYKLTFVPTNSDKPRDVYVFDKVEVQVRSVMDPITSKRKAELLLK”, the protein production entry is given as “failed”.

In the case of “MGVFLVLLGGIFWAISGVLAEYLFKNNYSVDWVCFYRLLSTGLILIFLSFKTQKILVFANLKESLSICIFGFFGLLLTQFGYFKAIYYTDAGTATMIQYCAPLIIMLYLCFKNKKFPKLIEIFALILIIFALFLLATKGDIEAVVLNYWGIFWAVIGAFGVAFYSLSAREVILKYGLFWIMGWASLFASFVFLLILQFDKGLIHYAFNLKAFFSMGGIVFIGTIGAFCLYLKGVEYIGALRASMIASIEPVAAALMSFLFLKTRYSLLDIFAFVLIILSVILNAKKTKAS”, the protein production entry is on record as “failed”.

“MIRILICFSLITASLLITSIFANSALLFTEFIHSLVDLIPIAFAFYALRIIDRIDSKYTYGLHRLEIVSSLFNIFTVVAGSVFSVYISTVELIEGSRGDFLLVLISSSIALSLSLVASTDKSEEGRVSGSKLHAIQDSLAYILAVISSLLIIIMKIYFIDPVSAYILNGVLVITSLSPLKFSYNILMEKSPIDTKSVETELQSIFPQVHHIHVWSICDHLNVATLHVRENPDLTLRELDKKREYAEKVLREKFGITHVTIQFEANNKKERLEKI”: the protein production entry was “failed”.

“HLGEVQSEVVRFAVRFPSDKEQSSLLIDADAPVYDFVRLRLLNGEPVSLDLTVMPVGLVPGLTKSHLEGSVFRYVQETLGLKLMGSYRVVRAMKPGELDKQHLHCEPTDPVLEVEQVIYLEDGTPLEYAHCHYRYDHGG”: the protein production result is on record as “not failed”.

Regarding “MVRDIEDEIRDEKNPRPLDEDDIALLKTYGLGPYSAPIKKVEKEIKDLAKKINDLCGIKESDTGLAPPSQWDLVSDKQMMQEEQPLQVARCTKIISPNTEDAKYVINVKQIAKFVVGLGDKVSPTDIEEGMRVGVDRNKYQIQIPLPPKIDPSVTMMTVEEKPDVTYNDVGGCKEQIEKMREVVELPMLHPEKFVKLGIDPPKGVLCYGPPGTGKTLLARAVANRTDACFIRVIGSELVQKYVGEGARMVRELFQMARSKKACIVFFDEVDAIGGARFDDGVGGDNEVQRTMLEIVNQLDGFDARGNIKVLMATNRPDTLDPALLRPGRLDRKVEFGLPDLESRTQIFKIHTRTMNCERDIRFELLARLCPNSTGADIRSVCTEAGMYAIRARRKTVTEKDFLDAVNKVIKGYQKFSATPKYMVYN”, the protein production entry is on record as “failed”.

“MAGATDQRRQEVLRAIVADYIASQEPVGSKALLERHNLKVSSATIRNDMAVLESEGYIVQQHASSGRIPTEKAYRTFVDSINDIKPLSVAERRAILGFLERGVDLEDVLKRSVQLLSQLTRQAAVIQLPNLNVSRVKHCE”: the protein production entry is “failed”.

In the case of “MKERRAPQPVVARCKLVLVGDVQCGKTAMLQVLAKDCYPETYVPTVFENYTACLETEEQRVELSLWDTSGSPYYDNVRPLCYSDSDAVLLCFDISRPETVDSALKKWRTEILDYCPSTRVLLIGCKTDLRTDLSTLMELSHQKQAPISYEQGCAIAKQLGAEIYLEGSAFTSEKSIHSIFRTASMLCLNKPSPLPQKSPVRSLSKRLLHLPSRSELISSTFKKEKAKSCSIM”, the protein production result is reported as “failed”.
